According to the supplement of paper PMC10065799, “High-throughput profiling of sequence recognition by tyrosine kinases and SH2 domains using bacterial peptide display” (eLife, 2023):

Columns and labels:
AncSZ = test: phosphorylation enrichment, bacterial display (enrichment ratio); higher = better substrate or ligand; peptides without Tyr show the background
FGFR1 = FGFR1 (UniProt P11362); test: as above
Jak2 = Jak2 (UniProt O60674); test: as above
c-Abl (mouse) = test: as above
MERTK = MERTK (UniProt Q12866); test: as above
EPHB1 = EPHB1 (UniProt P54762); test: as above
Chain of EPHB1 (P54762 whole entry, looked up): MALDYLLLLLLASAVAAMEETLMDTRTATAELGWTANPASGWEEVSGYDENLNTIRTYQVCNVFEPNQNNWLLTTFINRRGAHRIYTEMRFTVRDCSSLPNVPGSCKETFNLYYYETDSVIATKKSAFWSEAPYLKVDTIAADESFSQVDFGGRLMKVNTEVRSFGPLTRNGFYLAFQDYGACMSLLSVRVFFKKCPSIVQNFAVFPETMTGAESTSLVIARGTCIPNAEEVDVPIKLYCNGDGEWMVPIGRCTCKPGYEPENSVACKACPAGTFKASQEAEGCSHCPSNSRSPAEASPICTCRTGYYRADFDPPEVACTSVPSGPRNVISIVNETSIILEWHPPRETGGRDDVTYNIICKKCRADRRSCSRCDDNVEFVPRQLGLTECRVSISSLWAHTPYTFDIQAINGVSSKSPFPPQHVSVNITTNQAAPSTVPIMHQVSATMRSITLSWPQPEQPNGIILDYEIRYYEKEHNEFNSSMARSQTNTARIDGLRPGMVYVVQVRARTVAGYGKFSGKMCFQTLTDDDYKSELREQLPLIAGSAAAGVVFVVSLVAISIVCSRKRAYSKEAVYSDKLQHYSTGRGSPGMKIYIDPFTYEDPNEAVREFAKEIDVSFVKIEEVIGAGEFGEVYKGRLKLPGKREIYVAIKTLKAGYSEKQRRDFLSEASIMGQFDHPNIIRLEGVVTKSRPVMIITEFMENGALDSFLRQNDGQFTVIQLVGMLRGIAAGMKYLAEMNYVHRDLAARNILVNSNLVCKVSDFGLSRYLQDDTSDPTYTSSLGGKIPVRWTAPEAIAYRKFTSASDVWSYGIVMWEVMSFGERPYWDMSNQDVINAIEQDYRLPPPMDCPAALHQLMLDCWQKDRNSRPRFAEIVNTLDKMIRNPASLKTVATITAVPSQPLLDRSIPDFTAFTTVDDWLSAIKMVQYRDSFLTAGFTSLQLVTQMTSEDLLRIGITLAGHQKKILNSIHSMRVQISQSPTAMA

c-Src = test: as above
EPHB2 = EPHB2 (UniProt P29323); test: as above
Chain of EPHB2 (P29323 whole entry, looked up): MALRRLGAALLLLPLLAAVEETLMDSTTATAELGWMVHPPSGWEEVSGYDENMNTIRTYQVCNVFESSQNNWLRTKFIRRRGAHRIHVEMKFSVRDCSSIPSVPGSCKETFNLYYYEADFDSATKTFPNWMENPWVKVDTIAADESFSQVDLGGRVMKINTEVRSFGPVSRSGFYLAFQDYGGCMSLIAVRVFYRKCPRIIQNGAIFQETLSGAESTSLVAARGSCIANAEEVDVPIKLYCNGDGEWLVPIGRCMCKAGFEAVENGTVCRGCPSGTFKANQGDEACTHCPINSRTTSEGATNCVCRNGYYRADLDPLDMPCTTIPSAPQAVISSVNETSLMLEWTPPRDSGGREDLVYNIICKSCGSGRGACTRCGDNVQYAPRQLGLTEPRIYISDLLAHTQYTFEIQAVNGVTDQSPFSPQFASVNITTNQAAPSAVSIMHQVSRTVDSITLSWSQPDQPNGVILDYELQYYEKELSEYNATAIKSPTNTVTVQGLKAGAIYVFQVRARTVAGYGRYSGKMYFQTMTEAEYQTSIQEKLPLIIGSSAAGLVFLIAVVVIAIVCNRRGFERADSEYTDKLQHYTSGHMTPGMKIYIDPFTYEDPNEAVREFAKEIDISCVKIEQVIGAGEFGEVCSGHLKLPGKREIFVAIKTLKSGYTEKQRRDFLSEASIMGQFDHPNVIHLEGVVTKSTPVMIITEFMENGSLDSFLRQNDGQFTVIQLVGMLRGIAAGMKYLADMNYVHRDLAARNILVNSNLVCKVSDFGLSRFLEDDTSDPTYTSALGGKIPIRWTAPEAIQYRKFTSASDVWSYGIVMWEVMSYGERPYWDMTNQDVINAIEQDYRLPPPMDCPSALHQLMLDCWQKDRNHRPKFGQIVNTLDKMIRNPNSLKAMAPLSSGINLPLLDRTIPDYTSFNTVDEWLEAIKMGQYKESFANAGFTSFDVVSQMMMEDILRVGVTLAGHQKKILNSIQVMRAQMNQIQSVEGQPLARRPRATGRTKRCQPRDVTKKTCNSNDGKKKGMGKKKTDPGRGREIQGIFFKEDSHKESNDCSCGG

Hck = Hck (UniProt P08631); test: as above
Chain of Hck (P08631 whole entry, looked up): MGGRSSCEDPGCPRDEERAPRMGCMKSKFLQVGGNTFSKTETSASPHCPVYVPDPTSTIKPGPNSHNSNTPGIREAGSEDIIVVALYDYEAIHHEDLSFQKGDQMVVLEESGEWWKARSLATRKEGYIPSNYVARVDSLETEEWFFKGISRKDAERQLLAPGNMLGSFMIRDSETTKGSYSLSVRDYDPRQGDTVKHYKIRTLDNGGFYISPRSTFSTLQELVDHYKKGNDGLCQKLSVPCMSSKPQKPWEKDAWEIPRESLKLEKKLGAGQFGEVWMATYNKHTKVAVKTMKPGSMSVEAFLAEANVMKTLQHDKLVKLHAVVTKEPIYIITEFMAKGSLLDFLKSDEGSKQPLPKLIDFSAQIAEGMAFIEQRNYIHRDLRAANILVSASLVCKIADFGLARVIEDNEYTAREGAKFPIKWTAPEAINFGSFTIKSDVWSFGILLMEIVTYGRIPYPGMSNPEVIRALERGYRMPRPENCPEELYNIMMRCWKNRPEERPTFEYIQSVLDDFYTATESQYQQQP

Fyn = Fyn (UniProt P06241); test: as above
Chain of Fyn (P06241 whole entry, looked up): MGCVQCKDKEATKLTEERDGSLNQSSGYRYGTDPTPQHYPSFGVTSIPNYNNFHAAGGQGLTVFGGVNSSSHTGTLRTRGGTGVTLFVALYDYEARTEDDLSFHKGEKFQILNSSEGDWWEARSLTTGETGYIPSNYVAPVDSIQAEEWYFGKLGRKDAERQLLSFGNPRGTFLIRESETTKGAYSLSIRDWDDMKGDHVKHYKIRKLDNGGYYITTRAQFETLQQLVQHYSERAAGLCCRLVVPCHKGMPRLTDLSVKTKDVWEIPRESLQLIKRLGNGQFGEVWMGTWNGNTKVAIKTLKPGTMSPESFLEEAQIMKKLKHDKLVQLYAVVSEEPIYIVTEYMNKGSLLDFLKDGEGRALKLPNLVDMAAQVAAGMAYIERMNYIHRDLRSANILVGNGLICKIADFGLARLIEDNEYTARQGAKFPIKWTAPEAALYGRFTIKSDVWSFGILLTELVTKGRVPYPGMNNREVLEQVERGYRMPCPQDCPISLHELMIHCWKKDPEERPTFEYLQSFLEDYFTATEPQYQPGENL

Fer (mouse) = test: as above
FGFR3 = FGFR3 (UniProt P22607); test: as above
Fes = Fes (UniProt P07332); test: as above
Chain of Fes (P07332 whole entry, looked up): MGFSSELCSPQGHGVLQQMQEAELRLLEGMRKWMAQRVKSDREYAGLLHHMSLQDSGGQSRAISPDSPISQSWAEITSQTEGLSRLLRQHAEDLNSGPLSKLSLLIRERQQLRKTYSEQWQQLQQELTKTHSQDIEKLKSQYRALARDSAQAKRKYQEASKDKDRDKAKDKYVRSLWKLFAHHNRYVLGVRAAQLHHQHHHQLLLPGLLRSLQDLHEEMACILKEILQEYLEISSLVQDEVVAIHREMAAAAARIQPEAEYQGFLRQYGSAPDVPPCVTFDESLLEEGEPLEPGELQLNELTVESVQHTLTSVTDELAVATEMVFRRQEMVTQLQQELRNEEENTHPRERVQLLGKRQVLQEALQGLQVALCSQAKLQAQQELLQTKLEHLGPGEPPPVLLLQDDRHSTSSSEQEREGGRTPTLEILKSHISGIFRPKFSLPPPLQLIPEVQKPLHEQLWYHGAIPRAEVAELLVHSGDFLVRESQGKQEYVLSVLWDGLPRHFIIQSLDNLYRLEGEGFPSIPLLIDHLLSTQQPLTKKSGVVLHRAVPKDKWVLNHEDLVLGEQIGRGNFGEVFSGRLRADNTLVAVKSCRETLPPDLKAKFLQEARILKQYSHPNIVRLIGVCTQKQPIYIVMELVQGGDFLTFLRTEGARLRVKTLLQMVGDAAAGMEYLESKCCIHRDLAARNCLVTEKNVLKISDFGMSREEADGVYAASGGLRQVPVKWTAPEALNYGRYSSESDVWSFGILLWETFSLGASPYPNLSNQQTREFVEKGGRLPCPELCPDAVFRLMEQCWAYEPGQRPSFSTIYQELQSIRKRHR

c-Src SH2 = test: SH2 binding enrichment of the phosphorylated peptide, bacterial display (enrichment ratio); higher = better substrate or ligand; peptides without Tyr show the background
SHP2-C SH2 = test: as above
Grb2 SH2 = Grb2 SH2 (UniProt P62993); test: as above
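For SH2 binding enrichment of the phosphorylated peptide, bacterial display in this document: peptide library displayed on the E. coli surface as eCPX fusions, selected cells deep-sequenced, score is each peptide's frequency after selection divided by its frequency in the input.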
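For phosphorylation enrichment, bacterial display in this document: 11-residue human phosphosite peptides and single-mutation variants displayed on the E. coli surface, counted by deep sequencing, each peptide's frequency after selection divided by its frequency in the unselected input library; frequency after pTyr selection over input frequency; kinase dosed for 20-30% of maximal phosphorylation in three min.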

Chain of FGFR1 (P11362 whole entry, looked up): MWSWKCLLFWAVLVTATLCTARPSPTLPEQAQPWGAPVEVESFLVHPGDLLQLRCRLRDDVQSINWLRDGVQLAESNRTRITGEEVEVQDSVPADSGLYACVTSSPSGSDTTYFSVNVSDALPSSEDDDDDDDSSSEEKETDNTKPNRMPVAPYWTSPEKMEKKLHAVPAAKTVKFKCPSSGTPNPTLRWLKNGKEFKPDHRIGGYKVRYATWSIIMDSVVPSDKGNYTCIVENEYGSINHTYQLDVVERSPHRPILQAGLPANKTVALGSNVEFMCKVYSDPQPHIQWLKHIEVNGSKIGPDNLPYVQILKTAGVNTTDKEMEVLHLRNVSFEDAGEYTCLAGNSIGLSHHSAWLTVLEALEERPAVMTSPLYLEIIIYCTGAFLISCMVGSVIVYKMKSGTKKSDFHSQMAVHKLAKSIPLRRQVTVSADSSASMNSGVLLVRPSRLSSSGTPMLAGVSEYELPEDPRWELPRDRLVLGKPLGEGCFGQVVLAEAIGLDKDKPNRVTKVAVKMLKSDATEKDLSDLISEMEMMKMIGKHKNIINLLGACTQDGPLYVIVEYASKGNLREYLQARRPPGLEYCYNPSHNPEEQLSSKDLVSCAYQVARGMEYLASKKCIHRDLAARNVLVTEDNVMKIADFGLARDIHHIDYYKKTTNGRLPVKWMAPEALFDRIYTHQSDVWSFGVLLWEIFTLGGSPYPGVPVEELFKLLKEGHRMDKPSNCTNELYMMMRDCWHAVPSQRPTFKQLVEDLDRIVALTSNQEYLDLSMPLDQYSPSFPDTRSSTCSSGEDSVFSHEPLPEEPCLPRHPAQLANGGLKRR

SH2 binding enrichment (c-Src SH2)	SH2 binding enrichment (SHP2-C SH2)	SH2 binding enrichment (Grb2 SH2)	Sequence	phosphorylation enrichment (AncSZ)	phosphorylation enrichment (FGFR1)	phosphorylation enrichment (Jak2)	phosphorylation enrichment (c-Abl (mouse))	phosphorylation enrichment (MERTK)	phosphorylation enrichment (EPHB1)	phosphorylation enrichment (c-Src)	phosphorylation enrichment (EPHB2)	phosphorylation enrichment (Hck)	phosphorylation enrichment (Fyn)	phosphorylation enrichment (Fer (mouse))	phosphorylation enrichment (FGFR3)	phosphorylation enrichment (Fes)
0.4	0.589	0.56	TSEASYFKSLN [NGEF_Y288_YF]	0.972	0.563	0.626	0.51	0.481	0.438	0.677	0.599	0.359	0.684	0.535	0.487	0.717
0.83	8.03	0.907	TSIGNYFKPWF [DHCR24_Y299_N294T_YF]	1.03	1.66	7.94	6.12	4.44	8.6	0.348	4.48	0.46	0.428	0.473	1.23	0.778
0.438	0.622	0.826	TSLAQYDSNSK [BMX_Y216]	0.622	0.525	0.579	0.543	0.444	0.352	0.479	0.568	0.428	0.344	0.37	0.443	0.736
0.487	0.781	0.863	TSNQEYLDLSM [FGFR1_Y766]	1.14	1.53	1.03	1.02	0.437	0.8	0.492	0.626	0.464	0.485	0.457	1.17	1.08
0.478	0.577	0.797	TTEHIYGDNFF [UBA7_Y524]	0.776	0.417	0.671	0.754	0.597	0.458	4.18	0.514	2.41	5.55	2.38	0.552	0.882
0.422	0.515	0.737	TVEDHDFEGGI [TKT_Y563_Y563D_YF]	1.06	0.578	1.05	0.765	0.452	0.692	0.472	0.543	0.538	0.561	0.525	0.873	1.14
0.572	0.429	0.707	TVLGEYALPKG [CYP24A1_Y407]	1.15	0.45	0.592	6.83	0.585	0.58	0.39	0.542	0.565	0.491	0.404	0.562	0.621
0.676	0.964	0.974	TYGQVYKGRHV [TNIK_Y40]	0.484	0.493	0.482	0.711	0.942	0.507	6.62	0.506	6.44	8.37	0.528	0.533	0.488
0.5	0.576	0.721	VDASFYGGRGV [ANTXR2_Y381_YF]	0.561	0.32	0.574	0.443	0.377	0.396	0.391	0.338	0.91	0.447	0.336	0.463	0.632
0.897	0.677	0.891	VEDQYYRVDCY [FHL1_Y208_C209R]	2.93	7.43	1.98	0.958	0.94	0.711	1.55	0.712	0.993	0.892	0.598	6.22	1.46
0.507	0.748	0.978	VEKEKYVSYIS [JMJD1C_Y596_M591V]	0.76	0.453	0.866	0.698	0.444	0.487	0.5	0.489	0.434	0.464	0.466	0.567	0.826
1.03	0.985	0.991	VFAANYFKLLG [ROR2_Y645_D644N_YF]	0.872	2.44	5.33	0.73	1.13	0.645	0.56	0.648	0.526	0.58	0.472	1.58	1.04
0.551	0.727	0.584	VFAPDFIAGVS [NOB1_Y366_Y366F]	0.69	0.664	0.775	0.709	0.469	0.52	0.501	0.479	0.435	0.436	0.392	0.619	1.02
0.476	0.552	0.598	VFFGSYSCPFG [NKAP_Y104_R106C_YF]	1.45	0.476	1.33	1.15	0.836	0.802	0.55	0.786	0.518	0.437	0.679	0.92	1.5
0.428	0.764	0.885	VFSSDYFSFVL [USP24_Y2138_YF]	2.28	8.46	4.95	1.93	1.65	1.73	4.09	1.03	1.24	2.61	0.681	6.6	1.34

Sequence	SH2 binding enrichment (c-Src SH2)	SH2 binding enrichment (SHP2-C SH2)	SH2 binding enrichment (Grb2 SH2)	phosphorylation enrichment (AncSZ)	phosphorylation enrichment (FGFR1)	phosphorylation enrichment (Jak2)	phosphorylation enrichment (c-Abl (mouse))	phosphorylation enrichment (MERTK)	phosphorylation enrichment (EPHB1)	phosphorylation enrichment (c-Src)	phosphorylation enrichment (EPHB2)	phosphorylation enrichment (Hck)	phosphorylation enrichment (Fyn)	phosphorylation enrichment (Fer (mouse))	phosphorylation enrichment (FGFR3)	phosphorylation enrichment (Fes)
TTKAKYKTPIF [PLD2_Y573_T577I_YF]	0.764	1.14	1.06	0.588	0.481	0.659	0.632	0.495	0.38	0.434	0.263	0.411	0.499	0.487	0.572	0.717
